Results reported in IntAct's records for PubMed 19817875.

B1: Actin nucleation-promoting factor WAS (Homo sapiens), P42768 (parent)
chain: MSGGPMGGRPGGRGAPAVQQNIPSTLLQDHENQRLFEMLGRKCLTLATAVVQLYLALPPGAEHWTKEHCGAVCFVKDNPQKSYFIRLYGLQAGRLLWEQELYSQLVYSTPTPFFHTFAGDDCQAGLNFADEDEAQAFRALVQEKIQKRNQRQSGDRRQLPPPPTPANEERRGGLPPLPLHPGGDQGGPPVGPLSLGLATVDIQNPDITSSRYRGLPAPGPSPADKKRSGKKKISKADIGAPSGFKHVSHVGWDPQNGFDVNNLDPDLRSLFSRAGISEAQLTDAETSKLIYDFIEDQGGLEAVRQEMRRQEPLPPPPPPSRGGNQLPRPPIVGGNKGRSGPLPPVPLGIAPPPPTPRGPPPPGRGGPPPPPPPATGRSGPLPPPPPGAGGPPMPPPPPPPPPPPSSGNGPAPPPLPPALVPAGGLAPGGGRGALLDQIRQGIQLNKTPGAPESSALQPPPQSSEGLVGALMHVMQKRSRAIHSSDEGEDQAGDEDEDDEWDD

How the values were obtained:
Settings in all cases: with wipf1_human WIPF1, O43516
wipf1_human WIPF1, O43516, sequence (O43516 whole entry): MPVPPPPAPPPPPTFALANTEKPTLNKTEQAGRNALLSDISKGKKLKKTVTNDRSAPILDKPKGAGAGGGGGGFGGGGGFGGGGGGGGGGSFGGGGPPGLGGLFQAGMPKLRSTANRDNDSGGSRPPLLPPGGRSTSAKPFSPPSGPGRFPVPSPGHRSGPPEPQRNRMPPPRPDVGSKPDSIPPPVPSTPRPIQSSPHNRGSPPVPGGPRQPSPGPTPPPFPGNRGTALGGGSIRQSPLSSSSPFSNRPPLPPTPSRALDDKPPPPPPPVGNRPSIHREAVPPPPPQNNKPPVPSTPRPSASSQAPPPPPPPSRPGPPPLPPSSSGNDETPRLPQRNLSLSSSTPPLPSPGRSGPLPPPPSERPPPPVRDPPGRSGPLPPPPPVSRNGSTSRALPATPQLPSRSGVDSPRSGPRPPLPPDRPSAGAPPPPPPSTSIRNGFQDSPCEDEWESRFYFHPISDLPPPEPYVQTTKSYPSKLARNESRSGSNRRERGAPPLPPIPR

[1] = variants of: B1
[2] = variants of: B1; remark: listed apart in the source
[3] = variants of: B1; remark: listed apart in the source

Variant	effect of a mutation on the interaction [1]	effect of a mutation on the interaction [2]	effect of a mutation on the interaction [3]
MSGGPMGGRPGGRGAPAVQQNIPSTLLQDHENQRHFEMLGRKCLTLATAVVQLYLALPPGAEHWTKEHCGAVCFVKDNPQKSYFIRLYGLQAGRLLWEQELYSQLVYSTPTPFFHTFAGDDCQAGLNFADEDEAQAFRALVQEKIQKRNQRQSGDRRQLPPPPTPANEERRGGLPPLPLHPGGDQGGPPVGPLSLGLATVDIQNPDITSSRYRGLPAPGPSPADKKRSGKKKISKADIGAPSGFKHVSHVGWDPQNGFDVNNLDPDLRSLFSRAGISEAQLTDAETSKLIYDFIEDQGGLEAVRQEMRRQEPLPPPPPPSRGGNQLPRPPIVGGNKGRSGPLPPVPLGIAPPPPTPRGPPPPGRGGPPPPPPPATGRSGPLPPPPPGAGGPPMPPPPPPPPPPPSSGNGPAPPPLPPALVPAGGLAPGGGRGALLDQIRQGIQLNKTPGAPESSALQPPPQSSEGLVGALMHVMQKRSRAIHSSDEGEDQAGDEDEDDEWDD [L35H]	with no effect	disrupting interaction strength	decreasing interaction strength
MSGGPMGGRPGGRGAPAVQQNIPSTLLQDHKNQRLFEMLGRKCLTLATAVVQLYLALPPGAEHWTKEHCGAVCFVKDNPQKSYFIRLYGLQAGRLLWEQELYSQLVYSTPTPFFHTFAGDDCQAGLNFADEDEAQAFRALVQEKIQKRNQRQSGDRRQLPPPPTPANEERRGGLPPLPLHPGGDQGGPPVGPLSLGLATVDIQNPDITSSRYRGLPAPGPSPADKKRSGKKKISKADIGAPSGFKHVSHVGWDPQNGFDVNNLDPDLRSLFSRAGISEAQLTDAETSKLIYDFIEDQGGLEAVRQEMRRQEPLPPPPPPSRGGNQLPRPPIVGGNKGRSGPLPPVPLGIAPPPPTPRGPPPPGRGGPPPPPPPATGRSGPLPPPPPGAGGPPMPPPPPPPPPPPSSGNGPAPPPLPPALVPAGGLAPGGGRGALLDQIRQGIQLNKTPGAPESSALQPPPQSSEGLVGALMHVMQKRSRAIHSSDEGEDQAGDEDEDDEWDD [E31K]	with no effect	disrupting interaction strength	
MSGGPMGGRPGGRGAPAVQQNIPSTLLQDHENQRLFEMLGRKCLTPATAVVQLYLALPPGAEHWTKEHCGAVCFVKDNPQKSYFIRLYGLQAGRLLWEQELYSQLVYSTPTPFFHTFAGDDCQAGLNFADEDEAQAFRALVQEKIQKRNQRQSGDRRQLPPPPTPANEERRGGLPPLPLHPGGDQGGPPVGPLSLGLATVDIQNPDITSSRYRGLPAPGPSPADKKRSGKKKISKADIGAPSGFKHVSHVGWDPQNGFDVNNLDPDLRSLFSRAGISEAQLTDAETSKLIYDFIEDQGGLEAVRQEMRRQEPLPPPPPPSRGGNQLPRPPIVGGNKGRSGPLPPVPLGIAPPPPTPRGPPPPGRGGPPPPPPPATGRSGPLPPPPPGAGGPPMPPPPPPPPPPPSSGNGPAPPPLPPALVPAGGLAPGGGRGALLDQIRQGIQLNKTPGAPESSALQPPPQSSEGLVGALMHVMQKRSRAIHSSDEGEDQAGDEDEDDEWDD [L46P]	disrupting interaction strength		decreasing interaction strength

Continued, values first:

effect of a mutation on the interaction [1]	effect of a mutation on the interaction [2]	effect of a mutation on the interaction [3]	Variant
disrupting interaction strength		decreasing interaction strength	MSGGPMGGRPGGRGAPAVQQNIPSTLLQDHENQRLFEMLGRKCLTLATAVVQLYLALPPGAEHWTKEHCGAVYFVKDNPQKSYFIRLYGLQAGRLLWEQELYSQLVYSTPTPFFHTFAGDDCQAGLNFADEDEAQAFRALVQEKIQKRNQRQSGDRRQLPPPPTPANEERRGGLPPLPLHPGGDQGGPPVGPLSLGLATVDIQNPDITSSRYRGLPAPGPSPADKKRSGKKKISKADIGAPSGFKHVSHVGWDPQNGFDVNNLDPDLRSLFSRAGISEAQLTDAETSKLIYDFIEDQGGLEAVRQEMRRQEPLPPPPPPSRGGNQLPRPPIVGGNKGRSGPLPPVPLGIAPPPPTPRGPPPPGRGGPPPPPPPATGRSGPLPPPPPGAGGPPMPPPPPPPPPPPSSGNGPAPPPLPPALVPAGGLAPGGGRGALLDQIRQGIQLNKTPGAPESSALQPPPQSSEGLVGALMHVMQKRSRAIHSSDEGEDQAGDEDEDDEWDD [C73Y]
disrupting interaction strength		decreasing interaction strength	MSGGPMGGRPGGRGAPAVQQNIPSTLLQDHENQRLFEMLGRKCLTLATAVVQLYLALPPGAEHWTKEHCGAVCFVKDNPQKSYFIRLYGLQAGRLLWEQELYSQLVYSTPTPFFHTFAGDDCQAGLNFADEDETQAFRALVQEKIQKRNQRQSGDRRQLPPPPTPANEERRGGLPPLPLHPGGDQGGPPVGPLSLGLATVDIQNPDITSSRYRGLPAPGPSPADKKRSGKKKISKADIGAPSGFKHVSHVGWDPQNGFDVNNLDPDLRSLFSRAGISEAQLTDAETSKLIYDFIEDQGGLEAVRQEMRRQEPLPPPPPPSRGGNQLPRPPIVGGNKGRSGPLPPVPLGIAPPPPTPRGPPPPGRGGPPPPPPPATGRSGPLPPPPPGAGGPPMPPPPPPPPPPPSSGNGPAPPPLPPALVPAGGLAPGGGRGALLDQIRQGIQLNKTPGAPESSALQPPPQSSEGLVGALMHVMQKRSRAIHSSDEGEDQAGDEDEDDEWDD [A134T]
with no effect	disrupting interaction strength	decreasing interaction strength	MSGGPMGGRPGGRGAPAVQQNIPSTLLQDHENQRLFEMLGRKCLTLATAVVQLYLALPPGAEHWTKEHCGAVCFVKDNPQKSYFTRLYGLQAGRLLWEQELYSQLVYSTPTPFFHTFAGDDCQAGLNFADEDEAQAFRALVQEKIQKRNQRQSGDRRQLPPPPTPANEERRGGLPPLPLHPGGDQGGPPVGPLSLGLATVDIQNPDITSSRYRGLPAPGPSPADKKRSGKKKISKADIGAPSGFKHVSHVGWDPQNGFDVNNLDPDLRSLFSRAGISEAQLTDAETSKLIYDFIEDQGGLEAVRQEMRRQEPLPPPPPPSRGGNQLPRPPIVGGNKGRSGPLPPVPLGIAPPPPTPRGPPPPGRGGPPPPPPPATGRSGPLPPPPPGAGGPPMPPPPPPPPPPPSSGNGPAPPPLPPALVPAGGLAPGGGRGALLDQIRQGIQLNKTPGAPESSALQPPPQSSEGLVGALMHVMQKRSRAIHSSDEGEDQAGDEDEDDEWDD [I85T]
